Laboratory results as given in the domain aggregation screens of Martell et al. (2025).

Assay: soluble fraction after stress (log2 fold change); higher = more stays soluble; pooled small domains, quantitative proteomics
Details: stress: pH 4
In short: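 Pooled custom libraries of small protein domains were stressed at pH 4 and then measured by high-throughput quantitative proteomics. The fold change in the amount of each domain that stays soluble after the acid stress serves as a measure of aggregation propensity. Fold changes are given on a log2 scale, and higher values mean more of the domain stayed soluble.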

Sequence	soluble fraction (log2)
HMIGTPLSEWQKDAPEEITRDQIAELVILKFVTVEQLALASDAQLQRIGMGGVGLRERAKLYLNRK	-0.316
HMIGVNMEKSTVEKFANELNLPIDLLLKQLESAGIKKTSGAEELLEADKSALLNYLQIEHGA	-0.678
HMIGVQEFAMTYALTRRETEITQLIIQGKSNAMIAGELFISETTVKKHVSNIFEKTGVSRREELMVRVQAE	-1.45
HMIHANGLTDRQEMILEFIRSYISENNYPPSVREIGKGVGLASSASVHNNMKKLASLGFLNWDTD	-0.194
HMIHFDHPERSILDTMLYEKKGMTAQSARNRLAAYQFQGEDVFKPVSVLSGGELSRITLAIKNAMADK	0.0479
HMIHQPNNETTRNLIAGVVKKSLSVWETRVQVDGVDVTTAKDNLAEVHINIRYRLRHNQTPASLGLRLNLG	-0.15
HMIHSEDMDDHILGHKLVDQYLNKHIEFDNIKKAWNYHTVAIKKFGRYPHRNKILKRESTIEEIDFLKQP	-0.298
HMIHSEEIQDHIFVKQLGEVFLRNHINYENIMKSWDDHTNVIKRFRRYPHRNKILNRESTIDEISFLKE	-0.0283
HMIIDTELMTRVMKFGFSQADASDLVAQHSDDLLRTAISRVEARAESKGMTPLETPAGYFRWTLQDLVRNP	-2.02
HMIIIMKKSATNSEVRKVIERAEKEGLTVQVNQLEKQQVLGLVGDTRLIQDVAFLRYEGVENVERI	0.206
HMIILYTDEQQRIIDRLNEFIGEQPSQNEAAKLLGISAPILTNLRKGTYTGTVDKFMNKLAAYFNIKADLG	-0.372
HMIIMVNLYQIWDKEVQGLDSVGAKPEQIEARRQAIAAHFESKARQAGMSSKDIYATLDNFDTYSRQKTS	-1.3
HMIINFDAIRLTTELNKYNRHKAIPNSFFDGTFTILDVRDLYDSLSPKVQKIADTLIEQYNVDVKQ	-1.22
HMIISMKKGATPQEISHVRKLIEELGYKVHESQGSERMVFGAIGDERSKHRLTSLEAQPGVEKVIPILA	0.168
HMIISMKKTATKEQIAHVRELIEGMGYKAHMSVGAERVIFGAIGDERGKERLVSLEAQPGVEKVIPIL	≥ 0.43
HMIITLNIENLKRARENAGLTQTQAAQKIGVSDGTYKNYEQGKREPNGDKIVTIANAFGVTTDYLLGR	0.22
HMIIVMRKGATEAQVNDIVERVRAAGFGVHLSQGEERTIIGAIGGDRAVLADLNLEAAPGVERVTPIS	-0.0491
HMIIYGLNPVKDFINLFPNKISTLFISKNKLSDSEMKSVVNINTVYVSDAELKRITGTTKHQSLAAEID	-0.721
HMIKILGSAYRHGLDDDDILRAWNYHIQEFFEGEDPEKIVRLGFDTHGRLLEIGGEIYPGGGEKIFHAM	-0.719
HMIKITLPDGSVKEYKKGITPAEVAQSISEGLARNVISASYNGKTIETVTPLTTDGSLVLYTWDSPEGK	-0.168
HMIKLTVRQQEILDLIARSIDQTGFPPTRAEIAAELGFKSVNAAEEHLQALARKGVIEMVPGISRGIRLVQ	-0.306
HMIKRNPLDEIEGVGPGRKKALLHAFGSAKGVSRASVVDLVKVEGVSQALAERIHDFFHPATR	0.198
HMIKSIRELAEVITLWKNQGKTILIAEHRLSYLMDLADRVLYMKDGQIENDFSMADFRKIPPDEISRMGLR	-0.532
HMIKVAANESNRSDVLEIVRLFRVRVVDVNPESLTIEATGAEGKIDALLGLLEHYGVIELVRSGAVAVT	-1.1
HMILESREKYLGEVLEVLVEEEKEGEYFGYSQNYLRVKFKLEEKNLINQLINIKIKSIEDDILIGEKEN	-2.36

Sequence	soluble fraction (log2)
HMILKNVTSDLANKRLDKVASILFQTYSRTQIKKWILEGRVLVNGEISNPKDHVHENDEIEINPI	≥ 0.43
HMIMISKSFEINEDNINKRLDIFLTENLDGLSRGIVQKYISLEQITVNKESSHKDYRLKLDDFIEVKIQAH	-1.06
HMIMNDIQAKVLEIAETKDLGSITYYRLSKMLGVDHPYRVKYAIDKLIEKGLLTAKSDGSITKAI	0.204
HMIMTTKVSGIMFDKFNPSAILNINGMDYLVRSGDIINGYKILSIGQETVTVQYGANVYKASVG	-0.603
HMIMVAGHLQIKKGKYYMVLELKSESGERKTKWISTGLSAKGNKRKAEAMLEEARENYQSTDA	-0.0361
HMINIFKVKKAMEEIFASEWEDSPYTDQKISQILWSRGFSVSTGLVEKYRGQMGVPDANSRLNLN	-1.39
HMINIGANIRAIRKQKNIKQVDLVRLLQLEGVEITRETLVKIESGVQHIKASQLRGIRDALGTTYDELL	-0.863
HMINITALVKQLGGVDISKFNSAFKLLQQGKPLNTISNKVMADTFVALMKNSDEALNTKFRAAFKKI	0.0515
HMINKIANLSAELRMEGLPVSIRSTQAAVKIYMDLGGDDRNLLKTALMSIYVKDRYDIPKFNKVFEKLFA	0.0706
HMINKQPKDYEYFLEKWHFTQTEKHQLHNLILKLNIRYPNKDFLKITENLDNGKLVLKKLEERLSKT	-0.7
HMINNINKLPETQFIKLFANIFENSQFIAVALYKKKGDGFSDFKDLINKIMDIFENTTKEKKLKILNA	-0.173
HMINPASEKQLSFANSLIAKKEGGTETLNHYLHNRKVSSLEELDRKDVSEIINALKFAKEVT	0.0908
HMINRPVYVPLYTNLDVKDAAEIAEKLEENNIAYKLEDQGETILVNPEQKYKVRLMLAQEGLPKG	0.168
HMINSFDYLQAIFTELMKSQSKMTNQDAAKRLFMQGKVAVSNRDREGLRMVLAQLVTLLPKEELGGLSTVS	≥ 0.43
HMIPESVQGIEEFLATGALKGIGKKTAAAIVHKFGKDTLRIMEEEPERLAEVSGIGEKKAAAIGEAFALH	-0.236
HMIPNPMTDRELEVLGLLASGKTYKQVARALDLSQSTVRNHLHNVYHKLNVVDRAQAVIVSRENGW	-0.29
HMIPPGTITIEGAITKVPVFLDGKQIGTVPLTKEDVEPGKYRIRVLGVGRVITIDPGEKENVLFSGEDLGL	-0.401
HMIPTDPNGDLIKILYTSDQINELYARAKLNDVEDLFLDWTKNVLGESNFEETGPTKNEYLIPQ	-0.961
HMIPTTELAERLGTTKVANMIMLGALIKASGIISFDDMIKNLGELLGEGKAKLIKLNKEALEVGFN	0.0451
HMIPYSDLLKLLSNDAMPKFRNKDGWAKIHALETYLASRWSYQEYGFASFTVLLETVHNAEIRNDSVRLM	-0.0131
HMIQTMVVTDLKNGTIFKENGHPFIVLKYEHIKVSRGSAQVRVKMKNLITGQVLEKSWQSTAHVDDT	0.186
HMIRMPNLIGLSVRSAEQQLVIAGLKKGIVHQVNDPRLKEVIDMQALGHKITAGSSIPKGTEVDLYIGNGT	0.282
HMISAVDLMAARRKIEAGITNLQPGQAFTLPNKVGWVKRMTGGSYFIQGNGGYTASVRTISEAIQAAAMLL	-0.0224
HMISDQENDLNLKHLFDTADQNKDGLILESELKMLMTNLEINKETYDTVMKQITPAGMDYKTFSSL	-0.584
HMISFLNFVRKEIDASQLKDSTKQNHLTTIGLLQSFKPSIEFKDLNYNFITSFEKYLYDAGYQM	0.105
